These results are taken from article PMC7363588, “Mapping of the FGF14:Nav1.6 complex interface reveals FLPK as a functionally active peptide modulating excitability” (Physiological Reports, 2020).

In general, koff refers to a measure of how fast the partners let go of each other. Usually kon stands for a measure of how fast the partners come together.

In one experiment the test system is Nav channels. The conditions noted are these: peptide sequences derived from the LITFILKK motif of Navβ4 cytoplasmic tail; ref Grieco, Malhotra, Chen, Isom, & Raman, 2005; White et al., 2019; cited from earlier work. From the text:
The presence of other accessory proteins that directly interact with Nav1.6 in the native system may contribute to the reported activity of FLPK. A critical determinant required for repetitive firing in MSN and Purkinje neurons is the Navβ4 accessory subunit (Ji et al., 2017; White et al., 2019).

Experiment [1] addresses T1, FGF14-1b (aa 64-252), purified recombinant (human) (UniProt Q92915).
T1 sequence: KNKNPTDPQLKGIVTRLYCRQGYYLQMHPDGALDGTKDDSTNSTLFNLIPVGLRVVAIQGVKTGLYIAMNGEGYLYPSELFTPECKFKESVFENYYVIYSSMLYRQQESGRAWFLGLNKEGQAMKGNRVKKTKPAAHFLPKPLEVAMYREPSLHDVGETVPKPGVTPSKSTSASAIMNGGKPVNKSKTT
Put plainly: SPR; Biacore T100, 25°C; FGF14 (RU 16,000), FGF14 V160A (RU 18,000) or Nav1.6 C-tail (RU 12,000) amine-coupled on CM5 chip; peptides 1-100 µM in HBS-P+ at 50 µl/min, 180 s association, 180 s dissociation; 1:1 binding model. In general terms: In SPR one partner is held on a chip, and binding of the other changes the refractive index at the surface.

Take LITFILKK: the “effect on fast inactivation and Na^+ currents” value with Nav channels is “prevent stable fast inactivation and generate resurgent and persistent Na^+ currents through a voltage‐dependent open‐channel block”. In the case of FLPK [FLPK tetrapeptide], in experiment [1], the koff turned out to be 0.000431 s⁻¹ and the kon was found to be 84.4 M⁻¹ s⁻¹.
